Target: SARS-CoV spike without stabilizing modifications on pseudovirus (SARS-CoV, UniProt P59594 14-1255)
Assay: cell-based or functional assay

B1: 3A3 full-length antibody (mouse variable region-human IgG1 constant region chimera) (antibody, V domains shown)
VH: QVQLQQSGAELLKPGASVKLSCTASGFNIKDTYIHWLKQRPEQGLEWIGRIGPAIGNTIYAPKFQGKATITTDTSSNTAYLQLSSLTSEDTAVYYCARYYGSSYYYFDYWGQGTTLTVSS
VL: DIVMTQSAPSVPVTPGESVSISCRSSKSLLHSNGNTYLYWFLQRPGQSPQLLIYRMSNLASGVPDRFSGSGSGTAFTLRISRVEAEDVGVYYCMQYLEYPLTFGAGTKLELKR
Pseudovirus IC50: 188 nM
